Bridge positions count the residues as written; N and C are the ends. Square brackets hold non-standard residues; d marks the D form. Ends that are not written are not given here.
Key:
[1] = target: guanylate cyclase-C (GC-C) on T84 cells (human, UniProt P25092 24-1073); assay: cell-based or functional assay
[2] = target: T1, guanylate cyclase-C (GC-C) on rat jejunum tissue (rat, UniProt P23897 23-1072); assay: cell-based or functional assay
T1 sequence (looked up): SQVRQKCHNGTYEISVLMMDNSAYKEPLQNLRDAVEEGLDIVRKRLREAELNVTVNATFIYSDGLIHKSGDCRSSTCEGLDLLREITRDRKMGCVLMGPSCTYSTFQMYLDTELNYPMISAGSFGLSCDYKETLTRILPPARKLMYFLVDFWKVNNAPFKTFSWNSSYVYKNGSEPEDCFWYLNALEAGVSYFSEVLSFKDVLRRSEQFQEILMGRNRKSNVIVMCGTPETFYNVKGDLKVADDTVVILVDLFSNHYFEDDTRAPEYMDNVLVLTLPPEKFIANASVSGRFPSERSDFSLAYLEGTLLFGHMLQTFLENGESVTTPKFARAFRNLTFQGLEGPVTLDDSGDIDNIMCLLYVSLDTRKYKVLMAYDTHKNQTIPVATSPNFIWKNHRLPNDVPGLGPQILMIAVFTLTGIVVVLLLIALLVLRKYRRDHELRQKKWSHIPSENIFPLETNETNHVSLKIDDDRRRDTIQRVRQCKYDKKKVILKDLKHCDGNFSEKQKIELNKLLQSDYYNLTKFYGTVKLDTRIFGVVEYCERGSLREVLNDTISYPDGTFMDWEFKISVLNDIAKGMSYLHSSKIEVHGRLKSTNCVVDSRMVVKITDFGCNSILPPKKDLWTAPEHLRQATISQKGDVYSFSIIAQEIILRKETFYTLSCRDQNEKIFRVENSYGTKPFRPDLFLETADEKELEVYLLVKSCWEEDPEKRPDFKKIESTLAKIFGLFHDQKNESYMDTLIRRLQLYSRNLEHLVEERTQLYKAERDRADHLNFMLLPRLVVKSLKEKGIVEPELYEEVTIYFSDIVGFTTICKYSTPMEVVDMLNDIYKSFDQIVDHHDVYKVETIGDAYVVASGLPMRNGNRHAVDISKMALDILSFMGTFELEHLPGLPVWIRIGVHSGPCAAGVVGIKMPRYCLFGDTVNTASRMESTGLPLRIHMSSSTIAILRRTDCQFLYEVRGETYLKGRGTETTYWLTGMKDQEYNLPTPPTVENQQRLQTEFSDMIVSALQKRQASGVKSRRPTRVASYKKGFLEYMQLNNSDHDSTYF

Chain of guanylate cyclase-C (GC-C) on T84 cells (P25092 24-1073): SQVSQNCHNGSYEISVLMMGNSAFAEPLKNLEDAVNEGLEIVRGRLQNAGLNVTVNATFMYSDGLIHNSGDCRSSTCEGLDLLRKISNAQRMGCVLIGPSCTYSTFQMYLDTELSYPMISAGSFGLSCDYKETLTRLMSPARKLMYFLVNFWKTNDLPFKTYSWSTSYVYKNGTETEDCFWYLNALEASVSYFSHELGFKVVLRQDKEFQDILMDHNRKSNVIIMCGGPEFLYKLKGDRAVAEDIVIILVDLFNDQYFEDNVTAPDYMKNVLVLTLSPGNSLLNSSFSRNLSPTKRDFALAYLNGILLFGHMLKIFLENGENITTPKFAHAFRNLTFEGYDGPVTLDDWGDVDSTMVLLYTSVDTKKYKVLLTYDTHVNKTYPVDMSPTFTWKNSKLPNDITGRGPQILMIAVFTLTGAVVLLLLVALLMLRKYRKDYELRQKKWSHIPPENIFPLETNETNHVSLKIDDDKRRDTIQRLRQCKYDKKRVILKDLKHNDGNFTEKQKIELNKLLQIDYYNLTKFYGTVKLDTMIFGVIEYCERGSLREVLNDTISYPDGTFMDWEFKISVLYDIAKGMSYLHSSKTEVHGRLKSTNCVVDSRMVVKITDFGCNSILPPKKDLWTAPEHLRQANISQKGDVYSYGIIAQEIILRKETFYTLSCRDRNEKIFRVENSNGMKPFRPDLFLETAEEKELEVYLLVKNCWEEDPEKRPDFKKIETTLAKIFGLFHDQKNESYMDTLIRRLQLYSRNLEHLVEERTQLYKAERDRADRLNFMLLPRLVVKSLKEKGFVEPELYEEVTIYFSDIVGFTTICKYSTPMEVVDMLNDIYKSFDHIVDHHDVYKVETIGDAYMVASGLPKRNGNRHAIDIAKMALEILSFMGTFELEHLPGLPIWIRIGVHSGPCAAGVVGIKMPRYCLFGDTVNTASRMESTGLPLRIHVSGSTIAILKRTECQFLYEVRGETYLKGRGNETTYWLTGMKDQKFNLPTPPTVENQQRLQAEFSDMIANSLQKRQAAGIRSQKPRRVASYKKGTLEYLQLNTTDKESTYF

short-circuit current (Isc, chloride current) across T84 cells monolayer, Ussing chamber; EC50 [1]: 169 nM
short-circuit current (Isc, chloride current) across rat jejunum tissue, Ussing chamber; EC50 [2]: 299 nM
Binder: [dN]DECELCVNVACTGC[dL] (disulfide 4-12, 7-15) [SP-333]

Reference: patent US20200330548A1 (SYNERGY PHARMACEUTICALS, published 2020)
